± gives the standard deviation of the averaged measurements.
Test system: ATP
Assay: switch fluorescence ratio, 500 uM ATP over buffer (Cy3 cluster intensity, sum of 5 cycles each) (fold (ratio)); higher = stronger signal-on switching upon ATP binding; sequences stand for … in TCGTCGGCAGCGTCAGATGTGTATAAGAGACAGTTTTTTTTTTTTTTTTTTTTTTTTT…TC
Conditions: aptamer strand: ATP DNA aptamer (quencher-CACCTGGGGGAGTATTGCGGAGGAAGG + anchor), 100 nM annealed; ATP concentration: 500 uM
Outline: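 Imaging in selection buffer was followed by imaging after 15 min with 500 uM ATP at 22 °C, for Cy3-labelled switching-strand clusters annealed to 100 nM quencher-labelled ATP aptamer on a modified Illumina MiSeq flow-cell. Five of these buffer/ATP cycles ran, separated by NaOH stripping and re-annealing. The fluorescence ratio per cluster is summed target-cycle over summed buffer-cycle Cy3 intensity, averaged per switch-domain sequence; clusters outside 100-1000 RFU were removed.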
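Also: ATP exposure 15 min at 22 °C before imaging.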

Sequence	switch fluorescence ratio
CTAACTTGCG	0.995 ± 0.014
CTAAGCAGGG	1.01 ± 0.016
CTAAGGTAAG	0.981 ± 0.049
CTAATACTAG	0.982 ± 0.047
CTAATGAGGG	1.02 ± 0.036
CTAATGCGGA	1.01 ± 0.019
CTAATGGAGG	1.01 ± 0.011
CTAATGGGTG	1.02 ± 0.02
CTAATTGCAA	1.05 ± 0.066
CTAATTGGCG	1.02 ± 0.04
CTAATTTCGT	0.992 ± 0.014
CTAATTTTGT	0.995 ± 0.014
CTACGGCATA	3.11 ± 0.11
CTACGGGGTG	1.01 ± 0.046
CTACTAGAGC	1.02 ± 0.044
CTACTTTGGG	1.01 ± 0.027
CTAGAAGGGA	0.9965 ± 0.0049
CTAGAGGGCG	1.014 ± 0.0084
CTAGATGTAT	0.985 ± 0.017
CTAGATGTGG	0.983 ± 0.059
CTAGCACTGT	1.045 ± 0.0022
CTAGCCGGGG	1.01 ± 0.031
CTAGGAGATA	0.9736 ± 0.0014

Sequence	switch fluorescence ratio
CTAGGCAACG	0.982 ± 0.028
CTAGGGCGCT	0.983 ± 0.032
CTAGGGGATA	1.02 ± 0.014
CTAGGGGGCA	0.982 ± 0.037
CTAGGGTAAT	0.9675 ± 0.0036
CTAGGGTGTG	0.988 ± 0.034
CTAGGTATCA	0.965 ± 0.054
CTAGGTGGGT	1.01 ± 0.027
CTAGGTTCGC	1.01 ± 0.012
CTAGTCACCG	0.999 ± 0.019
CTAGTCGTCG	1.02 ± 0.019
CTAGTGATTG	0.99358 ± 0.0003
CTAGTGGCTG	1.02 ± 0.03
CTAGTTAAGT	0.991 ± 0.073
CTAGTTCAGC	0.99 ± 0.028
CTAGTTTGGT	1.008 ± 0.0049
CTATAAGGGG	0.999 ± 0.026
CTATACAGCA	1.06 ± 0.044
CTATACAGTG	1.02 ± 0.011
CTATACTGAG	1.05 ± 0.045
CTATAGAAGG	1.02 ± 0.025
CTATAGATTT	0.973 ± 0.02
CTATAGGGGG	1.007 ± 0.01

Sequence	switch fluorescence ratio
CTATAGGTCA	0.981 ± 0.036
CTATCACCTG	1.05 ± 0.021
CTATCGATAG	0.993 ± 0.035
CTATCGGGAC	1.09 ± 0.026
CTATCGGGAG	0.9831 ± 0.0025
CTATCTGTTT	0.9561 ± 0.002
CTATGAAAAG	1 ± 0.021
CTATGAAGGG	0.963 ± 0.034
CTATGCGGAA	1.06 ± 0.038
CTATGCGGTC	2.39 ± 1.8
CTATGCTGGT	1.01 ± 0.037
CTATGGTTTT	1.014 ± 0.003
CTATGTCGGT	0.974 ± 0.015
CTATTAAGGG	0.976 ± 0.056
CTATTAATGA	1.03 ± 0.057
CTATTATGTT	1 ± 0.019
CTATTCAGGT	1.01 ± 0.032
CTATTCCTGT	0.995 ± 0.014
CTATTCGGCC	0.986 ± 0.02
CTATTCGGGG	0.981 ± 0.01
CTATTGGGAG	1.03 ± 0.032
CTATTGTTTT	1.03 ± 0.079
CTATTTCATA	0.992 ± 0.018

Sequence	switch fluorescence ratio
CTATTTCCTT	0.975 ± 0.031
CTATTTGGCA	1.0113 ± 4.2e-05
CTATTTTGGC	0.966 ± 0.038
CTATTTTTTT	1.01 ± 0.02
CTCAATTCAA	1.02 ± 0.015
CTCAGCAGGG	1.73 ± 0.17
CTCAGGGTTT	1.04 ± 0.023
CTCAGTAATT	1.38 ± 0.046
CTCAGTAGGC	1.13 ± 0.066
CTCAGTCGGG	0.991 ± 0.01
CTCATACCTG	1.05 ± 0.021
CTCATAGGGG	1.07 ± 0.024
CTCATGAAAA	1.02 ± 0.02
CTCATGGGTT	1.02 ± 0.0011
CTCATGGTTG	0.9638 ± 0.007
CTCATTGTTG	0.992 ± 0.014
CTCCCCAGGG	2.689 ± 0.013
CTCCCCCGTC	1.46 ± 0.37
CTCCCGTCCA	1.28 ± 0.085
CTCCGGCGCA	4.19 ± 0.76
CTCCGGCTGG	1.19 ± 0.14
CTCCGGGCCT	1.42 ± 0.12
CTCCTAAAGA	1.05 ± 0.013

Sequence	switch fluorescence ratio
CTCCTACACC	1.25 ± 0.041
CTCGAAGTGG	0.996 ± 0.021
CTCGAGGGGG	1.18 ± 0.34
CTCGAGTAGT	1.04 ± 0.02
CTCGATAAAA	0.975 ± 0.022
CTCGATGCGT	1.04 ± 0.013
CTCGATGTGA	1.05 ± 0.071
CTCGCAGGCT	1.25 ± 0.037
CTCGCTGGTA	1.003 ± 0.0081
CTCGGATAAG	0.9922 ± 0.007
CTCGGATGTC	0.991 ± 0.022
CTCGGCTGCG	0.969 ± 0.084
CTCGGCTGTA	1.08 ± 0.019
CTCGGGAGAA	1.016 ± 0.0039
CTCGGGGGGT	1.01 ± 0.014
CTCGGGGTGC	1.036 ± 0.004
CTCGGGTGCG	0.973 ± 0.071
CTCGGTGGTG	0.959 ± 0.024
CTCGTACGAG	1.02 ± 0.021
CTCGTGAACT	1.048 ± 0.0022
CTCGTTATGT	0.9782 ± 0.0065
CTCTAAATGT	1.11 ± 0.016
CTCTAATCGG	1.018 ± 0.0097

Sequence	switch fluorescence ratio
CTCTAATGAA	0.992 ± 0.037
CTCTAGGGGC	1.128 ± 0.0065
CTCTAGGGGG	1.05 ± 0.028
CTCTATGTTA	1.02 ± 0.076
CTCTCACTGC	1.32 ± 0.05
CTCTCCTTGT	1.3 ± 0.38
CTCTGGACTA	1.11 ± 0.017
CTCTGGGATG	1.01 ± 0.064
CTCTGGGCTT	0.99826 ± 8.3e-05
CTCTGGGGGA	1.05 ± 0.068
CTCTGGTGGC	1.08 ± 0.054
CTCTGTGCTC	1.35 ± 0.083
CTCTGTTTAG	1.48 ± 0.53
CTCTGTTTGC	1.803 ± 0.0037
CTCTTACGTT	0.98 ± 0.023
CTCTTAGCTA	1.17 ± 0.019
CTCTTCTCTT	0.9657 ± 0.0088
CTCTTGGGGA	1.02 ± 0.0057
CTGAACGAAT	1.43 ± 0.034
CTGAACTCGT	1.03 ± 0.018
CTGAAGCTAG	2.27 ± 0.0024
CTGAAGGATC	1.05 ± 0.035
CTGAAGGGCG	0.979 ± 0.044

Sequence	switch fluorescence ratio
CTGAATACGG	1.115 ± 0.01
CTGAATGCGT	0.9844 ± 0.0084
CTGAATGGGT	0.998 ± 0.016
CTGACAAGGC	1.61 ± 0.27
CTGACAGCGG	1.06 ± 0.033
CTGAGCGATG	1.063 ± 0.0078
CTGAGGGGCC	0.951 ± 0.071
CTGAGGGGGA	1.09 ± 0.17
CTGAGGGGGT	0.991 ± 0.066
CTGAGTGCTT	0.991 ± 0.0067
CTGAGTGGC	0.9639 ± 0.0063
CTGAGTTGTT	0.989 ± 0.08
CTGATAAAGG	0.969 ± 0.048
CTGATATAAG	1.03 ± 0.017
CTGATATTGG	0.994 ± 0.015
CTGATGGGCT	0.972 ± 0.029
CTGATGGGG	0.986 ± 0.021
CTGATGTCGC	1.074 ± 0.0034
CTGATGTGTC	0.996 ± 0.055

Source: the supplement of paper PMC10126150
